This is an account of results in patent US20080286284A1.

The target in assay [1] is prostate specific membrane antigen (PSMA), full-length human (human) (UniProt Q04609). In words: average over PSMA-expressing cells.
For assay [2] the target is unchanged. In words: fraction of radiolabeled mAb bound, PSMA-3T3 cells.
Assay [3] addresses recombinant soluble PSMA (rsPSMA) (human) (UniProt Q04609). The assay is described as follows: Biacore, rsPSMA. (In SPR one partner is held on a chip, and binding of the other changes the refractive index at the surface.)
The target of assay [4] is prostate specific membrane antigen (PSMA), full-length human (human) (UniProt Q04609). The assay is described as follows: cell-based or functional assay.

Values joined by “and” are separate entries in the source; they are usually repeats but may differ in a detail not shown here. Identical values can stand only once.

Chain of prostate specific membrane antigen (PSMA), full-length human (human) (Q04609 whole entry): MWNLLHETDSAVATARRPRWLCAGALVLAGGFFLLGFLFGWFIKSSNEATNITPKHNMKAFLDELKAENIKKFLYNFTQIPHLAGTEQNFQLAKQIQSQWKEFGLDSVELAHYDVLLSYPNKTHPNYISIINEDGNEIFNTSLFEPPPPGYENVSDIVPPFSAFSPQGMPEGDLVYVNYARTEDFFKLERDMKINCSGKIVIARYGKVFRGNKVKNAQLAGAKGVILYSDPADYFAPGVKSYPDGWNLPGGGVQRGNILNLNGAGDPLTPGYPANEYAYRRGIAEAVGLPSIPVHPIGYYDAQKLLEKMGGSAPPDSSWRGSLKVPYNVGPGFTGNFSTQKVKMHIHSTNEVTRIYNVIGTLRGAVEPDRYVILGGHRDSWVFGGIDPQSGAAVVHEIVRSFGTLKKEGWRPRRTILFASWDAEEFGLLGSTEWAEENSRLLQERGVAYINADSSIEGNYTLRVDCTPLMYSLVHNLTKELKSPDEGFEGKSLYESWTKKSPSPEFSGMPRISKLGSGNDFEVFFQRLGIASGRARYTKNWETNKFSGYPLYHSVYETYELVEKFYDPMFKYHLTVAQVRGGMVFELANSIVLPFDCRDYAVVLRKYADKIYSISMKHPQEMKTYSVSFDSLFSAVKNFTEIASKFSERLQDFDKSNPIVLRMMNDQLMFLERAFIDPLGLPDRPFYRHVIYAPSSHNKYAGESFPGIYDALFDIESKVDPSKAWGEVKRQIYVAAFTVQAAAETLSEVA
Chain of recombinant soluble PSMA (rsPSMA) (human) (Q04609 44-750): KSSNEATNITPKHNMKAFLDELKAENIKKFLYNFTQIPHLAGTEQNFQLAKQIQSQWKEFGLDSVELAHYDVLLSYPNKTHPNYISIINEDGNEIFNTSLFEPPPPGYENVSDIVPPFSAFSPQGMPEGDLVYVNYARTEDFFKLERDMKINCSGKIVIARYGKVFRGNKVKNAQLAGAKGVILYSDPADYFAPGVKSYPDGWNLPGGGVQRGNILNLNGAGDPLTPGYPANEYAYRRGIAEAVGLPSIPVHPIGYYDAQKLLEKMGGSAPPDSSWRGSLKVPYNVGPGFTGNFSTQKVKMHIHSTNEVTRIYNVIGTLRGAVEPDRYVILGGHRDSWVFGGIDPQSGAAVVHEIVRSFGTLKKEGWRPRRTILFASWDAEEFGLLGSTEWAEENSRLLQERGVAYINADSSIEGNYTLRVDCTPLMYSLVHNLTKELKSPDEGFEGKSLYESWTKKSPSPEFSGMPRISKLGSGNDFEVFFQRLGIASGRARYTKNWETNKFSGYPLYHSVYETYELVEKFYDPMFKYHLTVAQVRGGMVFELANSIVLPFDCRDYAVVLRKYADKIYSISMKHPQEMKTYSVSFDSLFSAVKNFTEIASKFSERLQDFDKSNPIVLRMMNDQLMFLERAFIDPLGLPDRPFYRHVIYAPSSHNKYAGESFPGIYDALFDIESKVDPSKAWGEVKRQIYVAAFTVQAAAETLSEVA

As for “^111In radiolabeled CHX-A″-DTPA mJ591 (antibody)”, the Immunoreactivity (%) in assay [1] was 56.7%; in assay [2] it was 58.5% and 54.9%.

Regarding Control (Table 6, Biacore) (antibody), the Kd (usually the free concentration of one partner at which half of the binding sites on the other are occupied at equilibrium, for simple one-to-one binding) in assay [3] was determined as 0.634 nM.

As for mAb J591 (murine) (antibody), in assay [4], the LD50, immunotoxin cytotoxicity (Mab-Zap saporin secondary) on C4-2 cells is 88.2 pM and the LD50, immunotoxin cytotoxicity (Mab-Zap saporin secondary) on PSMA-3T3 cells turned out to be 89 pM.
